Test system: WT mice
Test: Sterile eCIRP-induced inflammation by rmCIRP injection in mice
Type: in vivo, mouse
Details: 4 hours, vs eCIRP alone
Procedure: FIG. 5A-5B. eCIRP-induced inflammation is attenuated by MOP3. WT mice were treated according to respective groups: PBS (volume equivalent), rmCIRP (5 mg/kg), or MOP3 (10 μg/kg) co-incubated with rmCIRP (5 mg/kg) for 30 mins prior to r.o. injection. After 4 hours, serum was measured for IL-6 (A) and TNFα (B) levels by ELISA. All experiments were performed 3 times, and all data were used for analysis (N=7-10). Data are expressed as mean±SEM and compared by one-way ANOVA and SNK test. *p<0.05 vs. PBS, #p<0.05 vs. eCIRP.
Adult (8-12 weeks) male, C57BL/6 wild-type (WT) mice (20-30 g) were purchased from Charles River Laboratories. MFG-E8 knockout mice (MFG-E8^−/−) were originally obtained from Dr. Shigekazu Nagata, Osaka University of Japan, and bred following our Institutional Animal Care and Use Committee (IACUC) policies. Age-matched, healthy mice were used in all experiments. Animals were randomly assigned to sham, vehicle, or treatment groups. Concerted effort was made to ensure that a limited number of animals were used in each experiment. […] For the design of in vivo models, sample size calculation was driven by variability, effect size, significance level and power as determined through performance of early feasibility and optimization pilot studies. […]
The mouse macrophage cell culture supernatants were analyzed for cytokine levels using ELISA kits (BD Biosciences, CA). […] TNF-α and IL-6 levels were measured in cell supernatants by ELISA in accordance with respective manufacturers' instructions (BD Biosciences, CA). Blood was collected, centrifuged at 4,000 RPM for 10 minutes, and sera was separated and analyzed for cytokine levels using ELISA kits (BD Biosciences, CA). TNF-α and IL-6 levels in the serum were measured by ELISA in accordance with respective manufacturers' instructions.
Serum levels of aspartate transaminase (AST), alanine transaminase (ALT), and lactate dehydrogenase (LDH) were determined using calorimetric enzymatic assays (Pointe Scientific, Canton, MI) according to the manufacturer's instructions.

[1] = rmCIRP 5 mg/kg co-incubated 30 min with test substance, r.o. injection

B1: milk fat globule-epidermal growth factor—factor VIII (protein, listed as Mus musculus)
chain: MQVSRVLAALCGMLLCASGLFAASGDFCDSSLCLNGGTCLTGQDNDIYCLCPEGFTGLVCNETERGPCSPNPCYNDAKCLVTLDTQRGDIFTEYICQCPVGYSGIHCETETNYYNLDGEYMFTTAVPNTAVPTPAPTPDLSNNLASRCSTQLGMEGGAIADSQISASSVYMGFMGLQRWGPELARLYRTGIVNAWTASNYDSKPWIQVNLLRKMRVSGVMTQGASRAGRAEYLKTFKVAYSLDGRKFEFIQDESGGDKEFLGNLDNNSLKVNMFNPTLEAQYIKLYPVSCHRGCTLRFELLGCELHGCSEPLGLKNNTIPDSQMSASSSYKTWNLRAFGWYPHLGRLDNQGKINAWTAQSNSAKEWLQVDLGTQRQVTGIITQGARDFGHIQYVASYKVAHSDDGVQWTVYEEQGSSKVFQGNLDNNSHKKNIFEKPFMARYVRVLPVSWHNRITLRLELLGC
significantly reduced: serum IL-6 levels [1] | serum TNFα levels [1] | LDH levels (tissue injury) (rmCIRP 5 mg/kg with rmMFG-E8 40 μg/kg)
